The values that follow come from the supplement of paper PMC7877785.

± gives the uncertainty stated by the source.

The data set is described as follows: self-splicing fitness, log relative to wild type (ln ratio); higher = more splicing; Tetrahymena group I intron in knt gene, E. coli kanamycin selection, DiMSum; sequences stand for … in CUCUCU…GGAGGGAAAAGUUAUCAGGCAUGCACCUGGUAGCUAGUCUUUAAACCAAUAGAUUGCAUCGGUUUAAAAGGCAAGACCGUCAAAUUGCGGGAAAGGGGUCAACAGCCGUUCAGUACCAAGUCUCAGGGGAAACUUUGAGAUGGCCUUGCAAAGGGUAUGGUAAUAAGCUGACGGACAUGGUCCUAACCACGCAGCCAAGUCCUAAGUCAACAGAUCUUCUGUUGAUAUGGAUGCAGUUCACAGACUAAAUGUCGGUCGGGGAAGAUGUAUUCUUCUCAUAAGAUAUAGUCGGACCUCUCCUUAAUGGGAGCUAGCGGAUGAAGUGAUGCAACACUGGAGCCGCUGGGAACUAAUUUGUAUGCGAAAGUAUAUUGAUUAGUUUUGGAGUACUCGUGGUCG
An outline of the steps:
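Six replicate transformations of E. coli BL21(DE3) with a pET-22b(+) library were grown overnight at 37°C or 30°C. The library randomised all eight P1ex-region intron nucleotides, the intron lying in the knt kanamycin-resistance gene, and plates were LB agar with or without 25 μg/mL kanamycin plus 100 μg/mL carbenicillin, 50 μM IPTG and 0.2% rhamnose. Pooled colonies were amplicon-sequenced on an Illumina HiSeq 2500, and fitness is the DiMSum error-weighted combination of wild-type-normalised replicate fold changes, kanamycin versus none.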

On to GACAAGCAAUAUUACGAAAG, for which the “self-splicing fitness (ln)” value runs as follows: (30 °C) -3.82 ± 0.23; (37 °C) -3.18 ± 0.24.
As for CGGCAGCAAUAUUACGGUGG, the “self-splicing fitness (ln)” value by setting is: (30 °C) -1.41 ± 0.09; (37 °C) -0.157 ± 0.082.
Consider CGAUAGCAAUAUUACGCGCC, for which the “self-splicing fitness (ln)” value was -2.04 ± 0.33 (30 °C) and 0.215 ± 0.24 (37 °C).
With UAGAAGCAAUAUUACGUAUA, the “self-splicing fitness (ln)” value (30 °C) is -1.58 ± 0.16 and the “self-splicing fitness (ln)” value (37 °C) is -0.471 ± 0.15.
On to ACGAAGCAAUAUUACGGUGG, for which the “self-splicing fitness (ln)” value is -3.93 ± 0.15 (30 °C) and -2.56 ± 0.23 (37 °C).
Regarding GGUAAGCAAUAUUACGUGGA, the “self-splicing fitness (ln)” value (30 °C) is -2.91 ± 0.21 and the “self-splicing fitness (ln)” value (37 °C) was -2.52 ± 0.2.
On the same counts, the results for ACUAAGCAAUAUUACGCGAG are -1.77 ± 0.082 and -0.355 ± 0.089.
For GACCAGCAAUAUUACGGAAU, the “self-splicing fitness (ln)” value was -0.34 ± 0.046 (30 °C) and 0.128 ± 0.066 (37 °C).
Regarding CAAAAGCAAUAUUACGACCU, the “self-splicing fitness (ln)” value is, setting by setting: (30 °C) -1.79 ± 0.095; (37 °C) -0.569 ± 0.084.
As for UACAAGCAAUAUUACGUCUG, the “self-splicing fitness (ln)” value was -0.521 ± 0.071 (30 °C) and 0.299 ± 0.08 (37 °C).
In the case of UCAAAGCAAUAUUACGUUUG, the “self-splicing fitness (ln)” value by setting is: (30 °C) -3.43 ± 0.16; (37 °C) -1.82 ± 0.14.
On the same counts, the results for GUUUAGCAAUAUUACGUUCU are -1.41 ± 0.14 and -0.628 ± 0.17.
Consider CCCAAGCAAUAUUACGAAAU, for which the “self-splicing fitness (ln)” value reads like this: (30 °C) -3.19 ± 0.25; (37 °C) -2.35 ± 0.18.
On to CUUAAGCAAUAUUACGGCAU, for which the “self-splicing fitness (ln)” value was -3.68 ± 0.23 (30 °C) and -3.67 ± 0.34 (37 °C).
For UCGCAGCAAUAUUACGUGCU, the “self-splicing fitness (ln)” value is -3.64 ± 0.16 (30 °C) and -2.15 ± 0.17 (37 °C).
On the same counts, the results for GGGAAGCAAUAUUACGCAUU are -2.94 ± 0.34 and -1.53 ± 0.44.
Consider CCCAAGCAAUAUUACGAAUG, for which the “self-splicing fitness (ln)” value by setting is: (30 °C) -3.88 ± 0.22; (37 °C) -2.8 ± 0.18.
With CCACAGCAAUAUUACGGAUA, the “self-splicing fitness (ln)” value runs as follows: (30 °C) -2.27 ± 0.12; (37 °C) -2.68 ± 0.18.
UUCAAGCAAUAUUACGCGAU: the “self-splicing fitness (ln)” value by setting is: (30 °C) -2.11 ± 0.16; (37 °C) -3 ± 0.34.
On to CUGCAGCAAUAUUACGCAAU, for which the “self-splicing fitness (ln)” value by setting is: (30 °C) -3.55 ± 0.25; (37 °C) -2.77 ± 0.21.
With GGCUAGCAAUAUUACGGCUG, the “self-splicing fitness (ln)” value was 0.0242 ± 0.097 (30 °C) and -0.992 ± 0.12 (37 °C).
Consider AGCGAGCAAUAUUACGUUAC, for which the “self-splicing fitness (ln)” value runs as follows: (30 °C) -3.84 ± 0.21; (37 °C) -2.26 ± 0.23.
For AGGUAGCAAUAUUACGCGAG, the “self-splicing fitness (ln)” value (30 °C) is -1.32 ± 0.014 and the “self-splicing fitness (ln)” value (37 °C) was -0.6 ± 0.032.
With UGAAAGCAAUAUUACGGCGA, the “self-splicing fitness (ln)” value is, setting by setting: (30 °C) -0.22 ± 0.1; (37 °C) -0.0348 ± 0.099.
For the sequence UGCCAGCAAUAUUACGCGCU, the “self-splicing fitness (ln)” value is, setting by setting: (30 °C) -1.3 ± 0.12; (37 °C) -0.531 ± 0.17.
As to CCGCAGCAAUAUUACGCGUU, the “self-splicing fitness (ln)” value by setting is: (30 °C) -3.51 ± 0.14; (37 °C) -2.29 ± 0.14.
On the same counts, the results for CUUAAGCAAUAUUACGCCCG are -1.46 ± 0.28 and 0.386 ± 0.3.
For GGUUAGCAAUAUUACGAGCA, the “self-splicing fitness (ln)” value (30 °C) was -0.943 ± 0.1 and the “self-splicing fitness (ln)” value (37 °C) is -0.264 ± 0.1.
Turning to GAGUAGCAAUAUUACGACUA, the “self-splicing fitness (ln)” value is 0.106 ± 0.14 (30 °C) and -0.537 ± 0.13 (37 °C).
On to AUACAGCAAUAUUACGGUUC, for which the “self-splicing fitness (ln)” value was -2.89 ± 0.12 (30 °C) and -1.2 ± 0.12 (37 °C).
For UUUGAGCAAUAUUACGGCAG, the “self-splicing fitness (ln)” value is, setting by setting: (30 °C) -1.6 ± 0.17; (37 °C) -1.56 ± 0.21.
On to UGGAAGCAAUAUUACGAUUA, for which the “self-splicing fitness (ln)” value was -1.1 ± 0.11 (30 °C) and 0.012 ± 0.12 (37 °C).
As to AUCCAGCAAUAUUACGUGCA, the “self-splicing fitness (ln)” value is, setting by setting: (30 °C) -1.63 ± 0.091; (37 °C) -0.196 ± 0.091.
In the case of CUCGAGCAAUAUUACGCAGG, the “self-splicing fitness (ln)” value runs as follows: (30 °C) -3.62 ± 0.3; (37 °C) -2.36 ± 0.25.
On to GUCUAGCAAUAUUACGGUUU, for which the “self-splicing fitness (ln)” value reads like this: (30 °C) -1.42 ± 0.077; (37 °C) -0.192 ± 0.095.
On the same counts, the results for CUGCAGCAAUAUUACGAGGG are -4.19 ± 0.24 and -1.95 ± 0.17.
On the same counts, the results for CAAUAGCAAUAUUACGACCU are -3.2 ± 0.24 and -0.203 ± 0.2.
